This is an account of results in publication PMC6844113.

Substrate in the series: Nc1ncnc2c1ncn2[C@@H]1O[C@H](COP(=O)(O)OP(=O)(O)OP(=O)(O)O)[C@@H](O)[C@H]1O
The experiment in a line: purified protein. In kind it is biochemical, Homo sapiens. Conditions: Mg2+.

B1: human DNA topoisomerase IIα (Homo sapiens) (protein)
chain: MEVSPLQPVNENMQVNKIKKNEDAKKRLSVERIYQKKTQLEHILLRPDTYIGSVELVTQQMWVYDEDVGINYREVTFVPGLYKIFDEILVNAADNKQRDPKMSCIRVTIDPENNLISIWNNGKGIPVVEHKVEKMYVPALIFGQLLTSSNYDDDEKKVTGGRNGYGAKLCNIFSTKFTVETASREYKKMFKQTWMDNMGRAGEMELKPFNGEDYTCITFQPDLSKFKMQSLDKDIVALMVRRAYDIAGSTKDVKVFLNGNKLPVKGFRSYVDMYLKDKLDETGNSLKVIHEQVNHRWEVCLTMSEKGFQQISFVNSIATSKGGRHVDYVADQIVTKLVDVVKKKNKGGVAVKAHQVKNHMWIFVNALIENPTFDSQTKENMTLQPKSFGSTCQLSEKFIKAAIGCGIVESILNWVKFKAQVQLNKKCSAVKHNRIKGIPKLDDANDAGGRNSTECTLILTEGDSAKTLAVSGLGVVGRDKYGVFPLRGKILNVREASHKQIMENAEINNIIKIVGLQYKKNYEDEDSLKTLRYGKIMIMTDQDQDGSHIKGLLINFIHHNWPSLLRHRFLEEFITPIVKVSKNKQEMAFYSLPEFEEWKSSTPNHKKWKVKYYKGLGTSTSKEAKEYFADMKRHRIQFKYSGPEDDAAISLAFSKKQIDDRKEWLTNFMEDRRQRKLLGLPEDYLYGQTTTYLTYNDFINKELILFSNSDNERSIPSMVDGLKPGQRKVLFTCFKRNDKREVKVAQLAGSVAEMSSYHHGEMSLMMTIINLAQNFVGSNNLNLLQPIGQFGTRLHGGKDSASPRYIFTMLSSLARLLFPPKDDHTLKFLYDDNQRVEPEWYIPIIPMVLINGAEGIGTGWSCKIPNFDVREIVNNIRRLMDGEEPLPMLPSYKNFKGTIEELAPNQYVISGEVAILNSTTIEISELPVRTWTQTYKEQVLEPMLNGTEKTPPLITDYREYHTDTTVKFVVKMTEEKLAEAERVGLHKVFKLQTSLTCNSMVLFDHVGCLKKYDTVLDILRDFFELRLKYYGLRKEWLLGMLGAESAKLNNQARFILEKIDGKIIIENKPKKELIKVLIQRGYDSDPVKAWKEAQQKVPDEEENEESDNEKETEKSDSVTDSGPTFNYLLDMPLWYLTKEKKDELCRLRNEKEQELDTLKRKSPSDLWKEDLATFIEELEAVEAKEKQDEQVGLPGKGGKAKGKKTQMAEVLPSPRGQRVIPRITIEMKAEAEKKNKKKIKNENTEGSPQEDGVELEGLKQRLEKKQKREPGTKTKKQTTLAFKPIKKGKKRNPWSDSESDRSSDESNFDVPPRETEPRRAATKTKFTMDLDSDEDFSDFDEKTDDEDFVPSDASPPKTKTSPKLSNKELKPQKSVVSDLEADDVKGSVPLSSSPPATHFPDETEITNPVPKKNVTVKKTAAKSQSSTSTTGAKKRAAPKGTKRDPALNSGVSQKPDPAKTKNRRKRKPSTSDDSDSNFEKIVSKAVTSKKSKGESDDFHMDFDSAVAPRAKSVRAKKPIKYLEESDEDDLF
B1: the Km is 220 ± 60 µM.
